The source of these data is paper PMC3229571, “ZipA Binds to FtsZ with High Affinity and Enhances the Stability of FtsZ Protofilaments” (PLoS ONE, 2011).

This data set deals with the molecule itself. Put plainly: co-sedimentation; FtsZ 6 µM, 50 mM PIPES pH 6.0, 6.8 or 8.0, 1 mM MgCl2, 1 mM GTP, 10 min at 37°C; polymers sedimented at 88,760 x g, 30°C, 30 min; SDS-PAGE of pellets.

B1: FtsZ (natural protein, E. coli, UniProt P0A9A6 1-383, looked up)
chain: MFEPMELTNDAVIKVIGVGGGGGNAVEHMVRERIEGVEFFAVNTDAQALRKTAVGQTIQIGSGITKGLGAGANPEVGRNAADEDRDALRAALEGADMVFIAAGMGGGTGTGAAPVVAEVAKDLGILTVAVVTKPFNFEGKKRMAFAEQGITELSKHVDSLITIPNDKLLKVLGRGISLLDAFGAANDVLKGAVQGIAELITRPGLMNVDFADVRTVMSEMGYAMMGSGVASGEDRAEEAAEMAISSPLLEDIDLSGARGVLVNITAGFDLRLDEFETVGNTIRAFASDNATVVIGTSLDPDMNDELRVTVVATGIGMDKRPEITLVTNKQVQQPVMDRYQQHGMAPLTQEQKPVAKVVNDNAPQTAKEPDYLDIPAFLRKQAD
notes: Cell division protein FtsZ, E. coli; no tag is named; also called recombinant E. coli FtsZ; source: E. coli BL21, purified (ammonium sulfate precipitation, desalting, polymerization and depolymerization step)
On to B1, for which the binding result was “binds”.
